Assay [1] addresses T1, human GLP-1 receptor (human, UniProt P43220 24-463).
T1 construct: whole, on cells; also called hGLP-1R; human glucagon-like peptide-1 receptor
As to the kind of experiment: SPA competition vs [125I]-GLP-1, hGLP-1R membranes. The method, then: The binding buffer contains 25 mM HEPES, pH 7.4, 2.5 mM CaCl₂, 1 mM MgCl₂, 0.1% (w/v) bacitracin, 0.003% (w/v) TWEEN®-20, and Roche Complete™ Protease Inhibitors without EDTA.
(§1) Data are analyzed using four-parameter (curve maximum, curve minimum, IC₅₀, Hill slope) nonlinear regression routines (Genedata Screener, version 12.0.4, Genedata AG, Basal, Switzerland). […] Values for Kᵢ are reported as the geometric mean, with error expressed as the standard error of the mean (SEM) and n is equal to the number of independent replicates (determined in assays performed on different days). Geometric Means are calculated as follows: […]

Assay [2] addresses T2, human GIP receptor (human, UniProt P48546 22-466).
T2 construct: whole, on cells; also called hGIPR; human glucose-dependent insulinotropic polypeptide receptor
T2 sequence (looked up): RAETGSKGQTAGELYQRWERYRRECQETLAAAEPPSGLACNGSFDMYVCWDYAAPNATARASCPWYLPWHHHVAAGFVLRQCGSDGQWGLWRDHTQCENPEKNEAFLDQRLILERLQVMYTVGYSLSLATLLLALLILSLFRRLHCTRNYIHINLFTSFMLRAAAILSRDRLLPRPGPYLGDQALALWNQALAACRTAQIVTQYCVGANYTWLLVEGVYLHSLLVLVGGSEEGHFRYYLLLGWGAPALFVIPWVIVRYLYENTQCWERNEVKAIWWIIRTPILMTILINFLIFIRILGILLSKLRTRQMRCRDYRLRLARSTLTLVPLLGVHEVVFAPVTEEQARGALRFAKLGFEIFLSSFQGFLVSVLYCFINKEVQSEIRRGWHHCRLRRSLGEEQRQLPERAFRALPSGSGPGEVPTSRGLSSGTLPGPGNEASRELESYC
The experiment in a line: SPA competition vs [125I]-GIP, hGIPR membranes. The method, then:
The binding buffer contains 25 mM HEPES, pH 7.4, 2.5 mM CaCl₂, 1 mM MgCl₂, 0.1% (w/v) bacitracin, 0.003% (w/v) TWEEN®-20, and Roche Complete™ Protease Inhibitors without EDTA. […] Plates are sealed and mixed on a plate shaker (setting 6) for 1 minute and read with a PerkinElmer Trilux MicroBeta® scintillation counter after 2.5 to 12 hours of incubation/settling time at room temperature.
as §1

B1: Y-Aib-EGT-αMeF(2F)-TSD-4Pal-Aib-I-αMeL-LD-Orn-QAQ-Aib-K((2-[2-(2-Amino-ethoxy)-ethoxy]-acetyl)2-(γ-Glu)-CO-(CH2)12-CO2H)FI-(D-Glu)-αMeY-LIK((2-[2-(2-Amino-ethox … (peptide)
peptide: YXEGTXTSDXXIXLDXQAQXKFIXXLIKGGPSSGAPPPS
modifications: Aib2, αMeF(2F)6, 4Pal10, Aib11, αMeL13, Orn16, Aib20, K21(Z1), D-Glu24, αMeY25, K28(Z1), C-term NH2; Z1=AEEA2-(γ-Glu)-CO-(CH2)12-CO2H
In general, Ki refers to the equilibrium dissociation constant of an inhibitor or competing ligand from its target. For B1, the Ki is 0.964 nM in assay [1] and 0.064 nM in assay [2].

B2: Y-Aib-EGT-αMeF(2F)-TSD-4Pal-SI-αMeL-LD-Orn-K((2-[2-(2-Amino-ethoxy)-ethoxy]-acetyl)3-(γ-Glu)-CO-(CH2)12-CO2H)AQ-Aib-EFI-(D-Glu)-αMeY-LIEGGK((2-[2-(2-Amino-ethox … (peptide)
peptide: YXEGTXTSDXSIXLDXKAQXEFIXXLIEGGKSSGAPPPS
modifications: Aib2, αMeF(2F)6, 4Pal10, αMeL13, Orn16, K17(Z1), Aib20, D-Glu24, αMeY25, K31(Z1), C-term NH2; Z1=AEEA3-(γ-Glu)-CO-(CH2)12-CO2H
Consider B2, for which the inhibition constant (Ki) was 2.66 nM in assay [1] and 0.0653 nM in assay [2].

B3: Y-Aib-EGT-αMeF(2F)-TSD-4Pal-SI-αMeL-LD-Orn-K((2-[2-(2-Amino-ethoxy)-ethoxy]-acetyl)2-(γ-Glu)-(10-(4-carboxyphenoxy)decanoyl))AQ-Aib-EFI-(D-Glu)-αMeY-LIEGGK((2-[ … (peptide)
peptide: YXEGTXTSDXSIXLDXKAQXEFIXXLIEGGKSSGAPPPS
modifications: Aib2, αMeF(2F)6, 4Pal10, αMeL13, Orn16, K17(Z1), Aib20, D-Glu24, αMeY25, K31(Z1), C-term NH2; Z1=AEEA2-(γ-Glu)-(10-(4-carboxyphenoxy)decanoyl)
The molecule B3 yielded a Ki in assay [2] of 0.0446 nM.

B4: Y-Aib-EGT-αMeF(2F)-TSD-4Pal-Aib-I-αMeL-LD-Orn-K((2-[2-(2-Amino-ethoxy)-ethoxy]-acetyl)-(γ-Glu)-CO-(CH2)12-CO2H)AQ-Aib-EFI-(D-Glu)-αMeY-LIK((2-[2-(2-Amino-ethoxy … (peptide)
peptide: YXEGTXTSDXXIXLDXKAQXEFIXXLIKGGPSSGAPPPS
modifications: Aib2, αMeF(2F)6, 4Pal10, Aib11, αMeL13, Orn16, K17(Z1), Aib20, D-Glu24, αMeY25, K28(Z1), C-term NH2; Z1=AEEA-(γ-Glu)-CO-(CH2)12-CO2H
As to B4, the Ki in assay [1] turned out to be 2.17 nM; in assay [2] it was 0.0747 nM.

B5: Y-Aib-EGT-αMeF(2F)-TSD-4Pal-SI-αMeL-LD-Orn-K((εK)-(2-[2-(2-Amino-ethoxy)-ethoxy]-acetyl)2-(γ-Glu)-CO-(CH2)12-CO2H)AQ-Aib-EFI-(D-Glu)-αMeY-LIEGGK((εK)-(2-[2-(2-A … (peptide)
peptide: YXEGTXTSDXSIXLDXKAQXEFIXXLIEGGKSSGAPPPS
modifications: Aib2, αMeF(2F)6, 4Pal10, αMeL13, Orn16, K17(Z1), Aib20, D-Glu24, αMeY25, K31(Z1), C-term NH2; Z1=(εK)-AEEA2-(γ-Glu)-CO-(CH2)12-CO2H
With B5, the Ki in assay [1] was 2.22 nM; in assay [2], 0.171 nM.

B6: Y-Aib-EGT-αMeF(2F)-TSD-4Pal-SI-αMeL-LD-Orn-K((2-[2-(2-Amino-ethoxy)-ethoxy]-acetyl)2-(γ-Glu)-CO-(CH2)12-CO2H)AQ-Aib-E-3FPhe-I-(D-Glu)-αMeY-LIEGGK((2-[2-(2-Amino … (peptide)
peptide: YXEGTXTSDXSIXLDXKAQXEXIXXLIEGGKSSGAPPPS
modifications: Aib2, αMeF(2F)6, 4Pal10, αMeL13, Orn16, K17(Z1), Aib20, 3FPhe22, D-Glu24, αMeY25, K31(Z1), C-term NH2; Z1=AEEA2-(γ-Glu)-CO-(CH2)12-CO2H
Take B6: the Ki in assay [1] came out at 1.52 nM; in assay [2], 0.161 nM.

B7: Y-Aib-EGT-αMeF(2F)-TSD-4Pal-SI-αMeL-LD-Orn-K((2-[2-(2-Amino-ethoxy)-ethoxy]-acetyl)2-(γ-Glu)-CO-(CH2)12-CO2H)AQ-Aib-E-(3ClPhe)-I-(D-Glu)-αMeY-LIEGGK((2-[2-(2-Am … (peptide)
peptide: YXEGTXTSDXSIXLDXKAQXEXIXXLIEGGKSSGAPPPS
modifications: Aib2, αMeF(2F)6, 4Pal10, αMeL13, Orn16, K17(Z1), Aib20, 3ClPhe22, D-Glu24, αMeY25, K31(Z1), C-term NH2; Z1=AEEA2-(γ-Glu)-CO-(CH2)12-CO2H
On to B7, for which the Ki in assay [1] was 1.59 nM; in assay [2], 0.132 nM.

B8: Y-Aib-EGT-αMeF-TSD-4Pal-SI-αMeL-LD-Orn-K((2-[2-(2-Amino-ethoxy)-ethoxy]-acetyl)2-(γ-Glu)-CO-(CH2)12-CO2H)AQ-Aib-EFI-(D-Glu)-αMeF-LIEGGK((2-[2-(2-Amino-ethoxy)-e … (peptide)
peptide: YXEGTXTSDXSIXLDXKAQXEFIXXLIEGGKSSGAPPPS
modifications: Aib2, αMeF6, 4Pal10, αMeL13, Orn16, K17(Z1), Aib20, D-Glu24, αMeF25, K31(Z1), C-term NH2; Z1=AEEA2-(γ-Glu)-CO-(CH2)12-CO2H
Regarding B8, the Ki in assay [1] was 3.67 nM; in assay [2], 0.0621 nM.

B9: Y-Aib-EGT-αMeF(2F)-TSD-aMeV-SI-αMeL-LD-Orn-K((2-[2-(2-Amino-ethoxy)-ethoxy]-acetyl)2-(γ-Glu)-CO-(CH2)12-CO2H)AQ-Aib-EFI-(D-Glu)-αMeY-LIEGGK((2-[2-(2-Amino-ethox … (peptide)
peptide: YXEGTXTSDXSIXLDXKAQXEFIXXLIEGGKSSGAPPPS
modifications: Aib2, αMeF(2F)6, αMeV10, αMeL13, Orn16, K17(Z1), Aib20, D-Glu24, αMeY25, K31(Z1), C-term NH2; Z1=AEEA2-(γ-Glu)-CO-(CH2)12-CO2H
Consider B9, for which the values for the Ki in assay [1] and in assay [2] were 1.16 nM and 0.0832 nM, respectively.

B10: Y-Aib-EGT-αMeF-TSD-αMeF-SI-αMeL-LD-Orn-K((2-[2-(2-Amino-ethoxy)-ethoxy]-acetyl)2-(γ-Glu)-CO-(CH2)12-CO2H)AQ-Aib-EFI-(D-Glu)-αMeY-LIEGGK((2-[2-(2-Amino-ethoxy)-e … (peptide)
peptide: YXEGTXTSDXSIXLDXKAQXEFIXXLIEGGKSSGAPPPS
modifications: Aib2, αMeF6, αMeF10, αMeL13, Orn16, K17(Z1), Aib20, D-Glu24, αMeY25, K31(Z1), C-term NH2; Z1=AEEA2-(γ-Glu)-CO-(CH2)12-CO2H
Consider B10, for which the values for the Ki in assay [1] and in assay [2] were 6.9 nM and 0.0891 nM, respectively.

B11: Y-Aib-EGT-αMeF(2F)-TSD-4Pal-SI-αMeL-LD-Orn-K((γ-Glu)-(2-[2-(2-Amino-ethoxy)-ethoxy]-acetyl)2-CO-(CH2)12-CO2H)AQ-Aib-EFI-(D-Glu)-αMeY-LIEGGK((γ-Glu)-(2-[2-(2-Ami … (peptide)
peptide: YXEGTXTSDXSIXLDXKAQXEFIXXLIEGGKSSGAPPPS
modifications: Aib2, αMeF(2F)6, 4Pal10, αMeL13, Orn16, K17(Z1), Aib20, D-Glu24, αMeY25, K31(Z1), C-term NH2; Z1=(γ-Glu)-AEEA2-CO-(CH2)12-CO2H
As for B11, the Ki in assay [1] was determined as 2.06 nM; in assay [2] it was 0.108 nM.

B12: Y-Aib-EGT-αMeF(2F)-TSD-4Pal-SI-αMeL-LD-Orn-K((2-[2-(2-Amino-ethoxy)-ethoxy]-acetyl)-(γ-Glu)-(2-[2-(2-Amino-ethoxy)-ethoxy]-acetyl)-CO-(CH2)12-CO2H)AQ-Aib-EFI-(D … (peptide)
peptide: YXEGTXTSDXSIXLDXKAQXEFIXXLIEGGKSSGAPPPS
modifications: Aib2, αMeF(2F)6, 4Pal10, αMeL13, Orn16, K17(Z1), Aib20, D-Glu24, αMeY25, K31(Z1), C-term NH2; Z1=AEEA-(γ-Glu)-AEEA-CO-(CH2)12-CO2H
Regarding B12, the Ki in assay [1] worked out at 2.5 nM; in assay [2], 0.092 nM.

B13: Y-Aib-EGT-αMeF(2F)-TSD-4Pal-SI-αMeL-LD-Orn-K((2-[2-(2-Amino-ethoxy)-ethoxy]-acetyl)2-(εK)-(γ-Glu)-CO-(CH2)12-CO2H)AQ-Aib-EFI-(D-Glu)-αMeY-LIEGGK((2-[2-(2-Amino- … (peptide)
peptide: YXEGTXTSDXSIXLDXKAQXEFIXXLIEGGKSSGAPPPS
modifications: Aib2, αMeF(2F)6, 4Pal10, αMeL13, Orn16, K17(Z1), Aib20, D-Glu24, αMeY25, K31(Z1), C-term NH2; Z1=AEEA2-(εK)-(γ-Glu)-CO-(CH2)12-CO2H
Regarding B13, the Ki in assay [1] amounted to 2.81 nM; in assay [2] it was 0.131 nM.

For the origin of these results see patent US20230265151A1, “GIP/GLP1 CO-AGONIST COMPOUNDS” (priority 2020, published 2023).
